Assay results: patent publication US20250333497A1, “ACTIVATING ANTIBODIES OF RECEPTOR PROTEINS PLXDC1 AND PLXDC2” (THE REGENTS OF THE UNIVERSITY OF CALIFORNIA, priority 2022, published 2025)

T1: full length PLXDC1 (PLXDC1-Full) (Homo sapiens, UniProt Q8IUK5)
T1 construct: expressed in transfected cells
T1 sequence (Q8IUK5 19-500): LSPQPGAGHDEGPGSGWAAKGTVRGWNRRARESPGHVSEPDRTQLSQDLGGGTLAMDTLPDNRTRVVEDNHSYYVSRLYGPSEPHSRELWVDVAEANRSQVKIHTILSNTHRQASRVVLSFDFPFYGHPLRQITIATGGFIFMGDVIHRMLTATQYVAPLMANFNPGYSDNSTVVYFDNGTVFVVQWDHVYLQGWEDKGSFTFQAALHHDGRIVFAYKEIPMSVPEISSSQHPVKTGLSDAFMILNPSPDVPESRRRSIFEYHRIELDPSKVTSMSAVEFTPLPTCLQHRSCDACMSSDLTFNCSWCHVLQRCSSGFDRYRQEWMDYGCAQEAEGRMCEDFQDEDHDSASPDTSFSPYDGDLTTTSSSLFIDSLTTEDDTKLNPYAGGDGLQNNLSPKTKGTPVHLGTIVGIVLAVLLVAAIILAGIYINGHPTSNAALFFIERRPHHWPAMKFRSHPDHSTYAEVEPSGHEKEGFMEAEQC


Key:
[1] = target: T2, Domain A-deleted PLXDC1 (PLXDC1-dA) (Homo sapiens, UniProt Q8IUK5); experiment: Domain A binding specificity: binding to Domain A-deleted PLXDC1 expressed in transfected cells; settings: for binding to PLXDC1 mutant with Domain A deleted: antibodies of Table 3 tested for ability to bind Domain A; for binding to Domain A-deleted PLXDC1 (PLXDC1-dA): transfected into a cell line that does not express PLXDC1, FIG. 3-4
T2 construct: expressed in transfected cells
Text: (§1) The specific binding to Domain A of a PLXDC protein can be tested with a method described herein. In some embodiments, the method employs a PLXDC with the Domain A deleted. […] An example is Compound 369 as described above.
(§2) The Domain A-binding antibodies are 3-C11, 4-A8, 5-E2, 2-H2, 3-G6, 3-G7, 8-A7, 8-A9, 8-C9 and 8-D9.
(§3) Both full length PLXDC1 and Domain A deleted PLXDC1 (PLXDC1-dA) have an epitope tag on the N-terminus.

[2] = target: T1, full length PLXDC1 (PLXDC1-Full); experiment: Domain A binding specificity: binding to full length PLXDC1 expressed in transfected cells; settings: for binding to PLXDC1: antibodies of Table 3 tested for ability to bind Domain A; for binding to full length PLXDC1 (PLXDC1-Full): transfected into a cell line that does not express PLXDC1, FIG. 3-4
Text: as §1, §2, §3

Row | Molecule | binding to PLXDC1 mutant with Domain A deleted [1] | binding to Domain A-deleted PLXDC1 (PLXDC1-dA) [1] | binding to PLXDC1 [2] | binding to full length PLXDC1 (PLXDC1-Full) [2]
1 | A002: VH SEQ ID NO:82, VL SEQ ID NO:83; Domain A-binding PLXDC1-activating antibody (antibody, V domains shown) VH: EVQLLESGGGLVQPGGSLRLSCAASGFTFKNYAMSWVRQAPGKGLEWVSAISASGGYTYYADSVKGRFTISRDNSKNTLYLQMNSLRAEDTAVYYCARGRWGAFDYWGQGTLVTVSS VL: QSVLTQPPSVSGAPGQRVTISCTGSSSNIGSGYDVHWYQQLPGTAPKLLIYGNRNRPSGVPDRFSGSKSGTSASLAITGLQAEDEADYYCQSYDSSLKTWVFGGGTKLTVL | not the mutant with Domain A deleted | did not bind to Domain A-deleted PLXDC1 | able to bind PLXDC1 | only bound to full length PLXDC1
2 | A005: VH SEQ ID NO:70, VL SEQ ID NO:71; Domain A-binding PLXDC1-activating antibody (antibody, V domains shown) VH: QVQLVESGGGVVQPGRSLRLSCAASGFTFSDYGMHWVRQAPGKGLEWVAVISYDGSRKYYANSVKGRFTISRDNSKNTLYLQMNSLRAEDTAVYYCARGSYSDGFDVWGQGTLVTVSS VL: DIQMTQSPSSLSASVGDRVTITCRASQSISRYLNWYQQKTGKAPKLLIYGASSLQSGVPSRFSGSGSGTDFTLTISSLQPEDFATYYCQQSYSTPYTFGQGTKVEIK | not the mutant with Domain A deleted | did not bind to Domain A-deleted PLXDC1 | able to bind PLXDC1 | only bound to full length PLXDC1
3 | A001: VH SEQ ID NO:38, VL SEQ ID NO:39; Domain A-binding PLXDC1-activating antibody (antibody, V domains shown) VH: EVQLLESGGGLVQPGGSLRLSCAASGFTFSSYAMSWVRQAPGKGLEWVSTIYASGATTYYADSVKGRFTISRDNSKNTLYLQMNSLRAEDTAVYYCARLKLYHAAFDIWGQGTLVTVSS VL: DIQMTQSPSSLSASVGDRVTITCRASQDISSYLNWYQQKPGKAPKLLIYTASSLQSGVPSRFSGSGSGTDFTLTISSLQPEDFATYYCQQSYSYPLTFGQGTKVEIK | not the mutant with Domain A deleted | did not bind to Domain A-deleted PLXDC1 | able to bind PLXDC1 | only bound to full length PLXDC1
4 | A004: VH SEQ ID NO:20, VL SEQ ID NO:21; Domain A-binding PLXDC1-activating antibody (antibody, V domains shown) VH: QVQLVESGGGVVQPGRSLRLSCAASGFTFSDYGMHWVRQAPGKGLEWVAVISYEGSNEYYADSVKGRFTISRDNSKNTLYLQMNSLRAEDTAVYYCARGSEGSGFDVWGQGTLVTVSS VL: DIQMTQSPSSLSASVGDRVTITCRASQRISNYLNWYQQKPGKAPKLLIYAASSLQSGVPSRFSGSGSGTDFTLTISSLQPEDFATYYCQQSYSPPYTFGQGTKVEIK | not the mutant with Domain A deleted | did not bind to Domain A-deleted PLXDC1 | able to bind PLXDC1 | only bound to full length PLXDC1

More lines, now with the values ahead:

Row | binding to PLXDC1 mutant with Domain A deleted [1] | binding to Domain A-deleted PLXDC1 (PLXDC1-dA) [1] | binding to PLXDC1 [2] | binding to full length PLXDC1 (PLXDC1-Full) [2] | Molecule
5 | not the mutant with Domain A deleted | did not bind to Domain A-deleted PLXDC1 | able to bind PLXDC1 | only bound to full length PLXDC1 | A007: VH SEQ ID NO:112, VL SEQ ID NO:113; Domain A-binding PLXDC1-activating antibody (antibody, V domains shown) VH: EVQLLESGGGLVQPGGSLRLSCAASGFTFRNYAMSWVRQAPGKGLEWVSSISGGGINTYYADSVKGRFTISRDNSKNTLYLQMNSLRAEDTAVYYCARVRSYSGPGYFDYWGQGTLVTVSS VL: EIVMTQSPATLSVSPGDRATLSCRASRSVSSNLAWYQQKPGQAPRLLIYGASTRATGIPARFSGSGSGTEFTLTISSLQSEDFAVYYCQQYYNWPLTFGQGTKVEIK
6 | not the mutant with Domain A deleted | – | able to bind PLXDC1 | – | A010: VH SEQ ID NO:176, VL SEQ ID NO:177; Domain A-binding PLXDC1-activating antibody (antibody, V domains shown) VH: QVQLVQSGAEVKKPGSSVKVSCKASGGTFSDEAIHWVRQAPGQGLEWMGRIIPVLGIASYAQKFQGRVTITADESTSTAYMELSSLRSEDTAVYYCARGLSRRAFYFDYWGQGTLVTVSS VL: DIQMTQSPSSLSASVGDRVTITCRASQTIGNYLNWYQQKPGKAPKLLIYVASSLQSGVPSRFSGSGSGTDFTLTISSLQPEDFATYYCQQSYRYPYTFGQGTKVEIK
7 | not the mutant with Domain A deleted | – | able to bind PLXDC1 | – | A008: VH SEQ ID NO:116, VL SEQ ID NO:117; Domain A-binding PLXDC1-activating antibody (antibody, V domains shown) VH: EVQLLESGGGLVQPGGSLRLSCAASGFTFSNYAMSWVRQAPGKGLEWVSAISGGGSRTYYADSVKGRFTISRDNSKNTLYLQMNSLRAEDTAVYYCAREARVLGYSLDYWGQGTLVTVSS VL: DIQMTQSPSSLSASVGDRVTITCRASQRIGKYLNWYQQKPGKAPKLLIYAASSLQSGVPSRFSGSGSGTDFTLTISSLQPEDFATYYCQQSYSYPLTFGQGTKVEIK
